# Patent US20250066503A1, “CELL INJURY INDUCING THERAPEUTIC DRUG FOR USE IN CANCER THERAPY” (CHUGAI SEIYAKU KABUSHIKI KAISHA, priority 2016, published 2025)
# Substitutions are numbered along the chain they refer to. Numbers in names are those of the source.
# B1: TR01H015-E2702GsKsc/GCH019-E2704sEpsc/L0000-k0 (bispecific antibody, human IgG4 S228P, kappa, N297A)
# heavy 1: QVQLVESGGGLVQPGRSLRLSCAASGFTFSNAWMHWVRQAPGKGLEWVAQIKGKSNNYATYYAESVKGRFTISRADSKNSIYLQMNSLKTEDTAVYYCRYVHYSASYGVDIWGQGTTVTVSSASTKGPSVFPLAPCSRSTSESTAALGCLVKDYFPEPVTVSWNSGALTSGVHTFPAVLQSSGLYSLSSVVTVPSSSLGTKTYTCNVDHKPSNTKVDKRVESKYGPPCPPCPAPEFRGGPKVFLFPPKPKDTLMISRTPEVTCVVVDVSQEDPEVQFNWYVDGVEVHNAKTKPREEQFASTYRVVSVLTVLHQDWLNGKEYKCKVSNKGLPSSIEKTISKAKGQPREPQVYTLPPSQKEMTKNQVSLTCLVKGFYPSDIAVEWESNGQPENNYKTTPPVLDSDGSFFLYSKLTVDKSRWQEGNVFSCSVMHEALHNRYTQKSLSLSP
# heavy 2: QVQLVQSGAEVKKPGASVTVSCKASGYTFTDYEMHWIRQPPGEGLEWIGAIDGKTPDTAYEQKFKGRVTLTADKSTSTAYMELSSLTSEDTAVYYCTRFYSYTYWGQGTLVTVSSASTKGPSVFPLAPCSRSTSESTAALGCLVKDYFPEPVTVSWNSGALTSGVHTFPAVLQSSGLYSLSSVVTVPSSSLGTQTYTCNVDHKPSNTKVDKRVESKYGPPCPPCPAPEFRGGPKVFLFPPKPKDTLMISRTPEVTCVVVDVSQEDPEVQFNWYVDGVEVHNAKTKPREEQFASTYRVVSVLTVLHQDWLNGKEYKCKVSNKGLPSSIEKTISKAKGQPREPQVYTLPPSQEEMTKNQVSLTCLVKGFYPSDIAVEWESNGQPENNYKTTPPVLDSDGSFFLYSKLTVDKSRWQEGNVFSCSVMHEALHNHYTQESLSLSP
# light: DIVMTQSPLSLPVTPGEPASISCRSSQSLVHSNRNTYLHWYQQKPGQAPRLLIYKVSNRFSGVPDRFSGSGSGTDFTLKISRVEAEDVGVYYCGQGTQVPYTFGQGTKLEIKRTVAAPSVFIFPPSDEQLKSGTASVVCLLNNFYPREAKVQWKVDNALQSGNSQESVTEQDSKDSTYSLSSTLTLSKADYEKHKVYACEVTHQGLSSPVTKSFNRGEC
# notes: common L chain format
# B2: CE115HA251-E22Hh/L0000-k0/GL4-E22Hk/H0610-E22L (bispecific antibody, human IgG1, kappa, L234A L235A, N297A)
# heavy: QVQLVESGGGVVQPGRSLRLSCAASGFTFSNAWMHWVRQAPGKGLEWVAQIKAKSNNYATYYAESVKGRFTISRDDSKNSLYLQMNSLKTEDTAVYYCRYVHYYYYYGVDAWGQGTTVTVSSASTKGPSVFPLAPSSKSTSGGTAALGCLVKDYFPEPVTVSWNSGALTSGVHTFPAVLQSSGLYSLSSVVTVPSSSLGTQTYICNVNHKPSNTKVDKKVEPKSCDKTHTCPPCPAPEAAGGPSVFLFPPKPKDTLMISRTPEVTCVVVDVSHEDPEVKFNWYVDGVEVHNAKTKPREEQYASTYRVVSVLTVLHQDWLNGKEYKCKVSNKALPAPIEKTISKAKGQPREPQVYTLPPSRCELTKNQVSLSCAVKGFYPSDIAVEWESNGQPENNYKTTPPVLDSDGSFFLVSKLTVDKSRWQQGNVFSCSVMHEALHNHYTQKSLSLSPDYKDDDDK
# light: B1 light
# chain 1: DIVMTQSPLSLPVTPGEPASISCRSSQSLVHSNRNTYLHWYQQKPGQAPRLLIYKVSNRFSGVPDRFSGSGSGTDFTLKISRVEAEDVGVYYCSQNTHVPPTFGQGTKLEIKSSASTKGPSVFPLAPSSKSTSGGTAALGCLVKDYFPEPVTVSWNSGALTSGVHTFPAVLQSSGLYSLSSVVTVPSSSLGTQTYICNVNHKPSNTKVDKKVEPKSCDKTHTCPPCPAPEAAGGPSVFLFPPKPKDTLMISRTPEVTCVVVDVSHEDPEVKFNWYVDGVEVHNAKTKPREEQYASTYRVVSVLTVLHQDWLNGKEYKCKVSNKALPAPIEKTISKAKGQPREPQVCTLPPSRDELTKNQVSLWCLVKGFYPSDIAVEWESNGQPENNYKTTPPVLDSDGSFFLYSKLTVDKSRWQQGNVFSCSVMHEALHNHYTQKSLSLSPHHHHHHHH
# chain 2: QVQLVQSGAEVKKPGASVKVSCKASGYTFTDYEMHWIRQPPGQGLEWIGAIDGKTPDTAYSQKFKGRVTLTADKSTSTAYMELSSLTSEDTAVYYCTRFYSYTYWGQGTLVTVSSASVAAPSVFIFPPSDEQLKSGTASVVCLLNNFYPREAKVQWKVDNALQSGNSQESVTEQDSKDSTYSLSSTLTLSKADYEKHKVYACEVTHQGLSSPVTKSFNRGEC
# notes: ERY22 format
# B3: TR01H002-E22Hh/GLS3108-k0/GL4-E22Hk/H0610-E22L (bispecific antibody, human IgG1, kappa, L234A L235A, N297A)
# heavy: B2 heavy with A59K, T60K, D110Q
# light: B1 light with H39S
# chain 1: B2 chain 1
# chain 2: B2 chain 2
# notes: ERY22 format
# B4: GPC3_ERY27 (hCE115HA-E22Hh/L0000-k0/GL4-E22Hk/H0000-E22L) (bispecific antibody, human IgG1, kappa, L234A L235A, N297A)
# heavy: B2 heavy with Y104G, Y105A
# light: B1 light
# chain 1: B2 chain 1
# chain 2: B2 chain 2 with G53P, P56G
# notes: ERY22 format
# B5: TR01H015-E22Hh/L0000-k0/GL4-E22Hk/H0610-E22L (bispecific antibody, human IgG1, kappa, L234A L235A, N297A)
# heavy: B2 heavy with V11L, A53G, D75A, L81I, Y104S, Y105A, Y106S, A111I
# light: B1 light
# chain 1: B2 chain 1
# chain 2: B2 chain 2
# notes: ERY22 format
# B6: CE115HA236-E22Hh/GLS3108-k0/GL4-E22Hk/H0610-E22L (bispecific antibody, human IgG1, kappa, L234A L235A, N297A)
# heavy: B2 heavy with Y105A, D110Q
# light: B1 light with H39S
# chain 1: B2 chain 1
# chain 2: B2 chain 2
# notes: ERY22 format
# B7: GCH100-G1dh/none-Hi-Kn010G3/L0000-k0 (antibody, V domains shown)
# VH: QVQLVQSGAEVKKPGASVTVSCKASGYTFTDYEMHWVRQAPGEGLEWMGAIDGYTPDTAYSEKFKGRVTLTADKSTSTAYMELSSLTSEDTAVYYCTRFYSYTYWGQGTLVTVSS
# VL: DIVMTQSPLSLPVTPGEPASISCRSSQSLVHSNRNTYLHWYQQKPGQAPRLLIYKVSNRFSGVPDRFSGSGSGTDFTLKISRVEAEDVGVYYCGQGTQVPYTFGQGTKLEIKR
# notes: one-arm
# B8: H0610-G1dh/none-Hi-Kn010G3/L0000vk1-k0 (antibody, V domains shown)
# VH: B7 VH with T19K, V37I, A40P, E43Q, M48I, Y54K, E62Q
# VL: DIQMTQSPSSLSASVGDRVTITCRSSQSLVHSNRNTYLHWYQQKPGKAPKLLIYKVSNRFSGVPSRFSGSGSGTDFTFTISSLQPEDIATYYCGQGTQVPYTFGQGTKVEIK
# notes: one-arm
# B9: H0610-G1dh/none-Hi-Kn010G3/L0222-k0 (antibody, V domains shown)
# VH: B7 VH with T19K, V37I, A40P, E43Q, M48I, Y54K, E62Q
# VL: B7 VL with L29P, L38I, H39Q, G94Y
# notes: one-arm
# B10: H0610-G1dh/none-Hi-Kn010G3/L0011-k0 (antibody, V domains shown)
# VH: B7 VH with T19K, V37I, A40P, E43Q, M48I, Y54K, E62Q
# VL: B7 VL with S28P
# notes: one-arm
# B11: H0610-G1dh/none-Hi-Kn010G3/L0204-k0 (antibody, V domains shown)
# VH: B7 VH with T19K, V37I, A40P, E43Q, M48I, Y54K, E62Q
# VL: B7 VL with L29P, S61R
# notes: one-arm
# B12: H0610-G1dh/none-Hi-Kn010G3/L0203-k0 (antibody, V domains shown)
# VH: B7 VH with T19K, V37I, A40P, E43Q, M48I, Y54K, E62Q
# VL: B7 VL with L29P, L38I
# notes: one-arm
# B13: H0610-G1dh/none-Hi-Kn010G3/L0206-k0 (antibody, V domains shown)
# VH: B7 VH with T19K, V37I, A40P, E43Q, M48I, Y54K, E62Q
# VL: B7 VL with L29P, G94Y
# notes: one-arm
# B14: H0610-G1dh/none-Hi-Kn010G3/L0208-k0 (antibody, V domains shown)
# VH: B7 VH with T19K, V37I, A40P, E43Q, M48I, Y54K, E62Q
# VL: B7 VL with L29P, S61W, G94Y
# notes: one-arm
# B15: GCH100-G1dh/none-Hi-Kn010G3/L0011-k0 (antibody, V domains shown)
# VH: B7 VH
# VL: B7 VL with S28P
# notes: one-arm
# B16: H0610-G1dh/none-Hi-Kn010G3/L0201-k0 (antibody, V domains shown)
# VH: B7 VH with T19K, V37I, A40P, E43Q, M48I, Y54K, E62Q
# VL: B7 VL with S28P, L29P
# notes: one-arm
# B17: H0610-G1dh/none-Hi-Kn010G3/L0212-k0 (antibody, V domains shown)
# VH: B7 VH with T19K, V37I, A40P, E43Q, M48I, Y54K, E62Q
# VL: B7 VL with S25P, L29P, G94Y
# notes: one-arm
# B18: H0610-G1dh/none-Hi-Kn010G3/L0211-k0 (antibody, V domains shown)
# VH: B7 VH with T19K, V37I, A40P, E43Q, M48I, Y54K, E62Q
# VL: B7 VL with S28P, L29P, G94Y
# notes: one-arm
# B19: GCH100-G1dh/none-Hi-Kn010G3/L0201-k0 (antibody, V domains shown)
# VH: B7 VH
# VL: B7 VL with S28P, L29P
# notes: one-arm
# B20: H0610-G1dh/none-Hi-Kn010G3/L0209-k0 (antibody, V domains shown)
# VH: B7 VH with T19K, V37I, A40P, E43Q, M48I, Y54K, E62Q
# VL: B7 VL with L29P, L38I, G94Y
# notes: one-arm
# Target: T1, soluble human CD3 epsilon chain (human, UniProt P07766 23-126)
# T1 construct: also called CD3ε
# Experiment: SPR
# T1 sequence (P07766 23-126 limits assumed): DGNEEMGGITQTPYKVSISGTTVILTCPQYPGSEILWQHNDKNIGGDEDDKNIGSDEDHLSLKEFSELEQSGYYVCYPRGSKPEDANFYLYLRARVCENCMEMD
row,Kd,Binder
1,29.6 nM,B1
2,13.7 nM,B2
3,2.04 nM,B3
4,61.6 nM,B4
5,35.7 nM,B5
6,6.08 nM,B6

# Target: T2, human GPC3 (human, UniProt P51654 25-563)
# T2 construct: range 25-563; soluble analyte; also called soluble human GPC3; glypican 3
# Experiment: SPR
# T2 sequence (P51654 25-563 limits assumed): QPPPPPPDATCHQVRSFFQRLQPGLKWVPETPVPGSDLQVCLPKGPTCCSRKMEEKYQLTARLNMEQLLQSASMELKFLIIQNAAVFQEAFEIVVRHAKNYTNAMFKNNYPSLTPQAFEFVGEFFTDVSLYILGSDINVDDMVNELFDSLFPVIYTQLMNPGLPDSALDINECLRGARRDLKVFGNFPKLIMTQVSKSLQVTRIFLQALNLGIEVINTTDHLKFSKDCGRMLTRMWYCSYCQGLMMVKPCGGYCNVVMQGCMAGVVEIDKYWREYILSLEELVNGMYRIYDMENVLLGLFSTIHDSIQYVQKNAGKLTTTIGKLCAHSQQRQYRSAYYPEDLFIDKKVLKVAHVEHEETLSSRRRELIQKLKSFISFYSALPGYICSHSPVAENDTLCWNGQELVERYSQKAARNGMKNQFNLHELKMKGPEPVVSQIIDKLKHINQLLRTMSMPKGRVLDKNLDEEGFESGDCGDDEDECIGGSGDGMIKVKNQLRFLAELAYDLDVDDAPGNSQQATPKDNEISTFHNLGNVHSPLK
row,Kd,Binder
1,1.64 nM,B1
2,0.236 nM,B2
3,0.475 nM,B3
4,4.28 nM,B4
5,0.263 nM,B5
6,0.267 nM,B6
7,5.39 nM,B7
8,2.16 nM,B8
9,0.00014 nM,B9
10,2.76 nM,B10
11,0.727 nM,B11
12,2.11 nM,B12
13,0.865 nM,B13
14,0.53 nM,B14
15,3.81 nM,B15
16,1.13 nM,B16
17,0.994 nM,B17
18,0.647 nM,B18
19,1.37 nM,B19
20,1.12 nM,B20
